Like-named read-outs stand apart in the source and are kept apart here.
How the values were obtained:
Test in all cases: FRET or BRET
Venus-IQGAP1 (human) = Venus-IQGAP1 (human) (UniProt P46940)
mCherry-actin [1] = biological target: mCherry-actin (UniProt P60709)
mCherry-actin [2] = biological target: mCherry-actin (UniProt P60709); remark: listed apart in the source
mCherry-actin [3] = biological target: mCherry-actin (UniProt P60709); remark: listed apart in the source

Venus-IQGAP1, sequence (P46940 whole entry): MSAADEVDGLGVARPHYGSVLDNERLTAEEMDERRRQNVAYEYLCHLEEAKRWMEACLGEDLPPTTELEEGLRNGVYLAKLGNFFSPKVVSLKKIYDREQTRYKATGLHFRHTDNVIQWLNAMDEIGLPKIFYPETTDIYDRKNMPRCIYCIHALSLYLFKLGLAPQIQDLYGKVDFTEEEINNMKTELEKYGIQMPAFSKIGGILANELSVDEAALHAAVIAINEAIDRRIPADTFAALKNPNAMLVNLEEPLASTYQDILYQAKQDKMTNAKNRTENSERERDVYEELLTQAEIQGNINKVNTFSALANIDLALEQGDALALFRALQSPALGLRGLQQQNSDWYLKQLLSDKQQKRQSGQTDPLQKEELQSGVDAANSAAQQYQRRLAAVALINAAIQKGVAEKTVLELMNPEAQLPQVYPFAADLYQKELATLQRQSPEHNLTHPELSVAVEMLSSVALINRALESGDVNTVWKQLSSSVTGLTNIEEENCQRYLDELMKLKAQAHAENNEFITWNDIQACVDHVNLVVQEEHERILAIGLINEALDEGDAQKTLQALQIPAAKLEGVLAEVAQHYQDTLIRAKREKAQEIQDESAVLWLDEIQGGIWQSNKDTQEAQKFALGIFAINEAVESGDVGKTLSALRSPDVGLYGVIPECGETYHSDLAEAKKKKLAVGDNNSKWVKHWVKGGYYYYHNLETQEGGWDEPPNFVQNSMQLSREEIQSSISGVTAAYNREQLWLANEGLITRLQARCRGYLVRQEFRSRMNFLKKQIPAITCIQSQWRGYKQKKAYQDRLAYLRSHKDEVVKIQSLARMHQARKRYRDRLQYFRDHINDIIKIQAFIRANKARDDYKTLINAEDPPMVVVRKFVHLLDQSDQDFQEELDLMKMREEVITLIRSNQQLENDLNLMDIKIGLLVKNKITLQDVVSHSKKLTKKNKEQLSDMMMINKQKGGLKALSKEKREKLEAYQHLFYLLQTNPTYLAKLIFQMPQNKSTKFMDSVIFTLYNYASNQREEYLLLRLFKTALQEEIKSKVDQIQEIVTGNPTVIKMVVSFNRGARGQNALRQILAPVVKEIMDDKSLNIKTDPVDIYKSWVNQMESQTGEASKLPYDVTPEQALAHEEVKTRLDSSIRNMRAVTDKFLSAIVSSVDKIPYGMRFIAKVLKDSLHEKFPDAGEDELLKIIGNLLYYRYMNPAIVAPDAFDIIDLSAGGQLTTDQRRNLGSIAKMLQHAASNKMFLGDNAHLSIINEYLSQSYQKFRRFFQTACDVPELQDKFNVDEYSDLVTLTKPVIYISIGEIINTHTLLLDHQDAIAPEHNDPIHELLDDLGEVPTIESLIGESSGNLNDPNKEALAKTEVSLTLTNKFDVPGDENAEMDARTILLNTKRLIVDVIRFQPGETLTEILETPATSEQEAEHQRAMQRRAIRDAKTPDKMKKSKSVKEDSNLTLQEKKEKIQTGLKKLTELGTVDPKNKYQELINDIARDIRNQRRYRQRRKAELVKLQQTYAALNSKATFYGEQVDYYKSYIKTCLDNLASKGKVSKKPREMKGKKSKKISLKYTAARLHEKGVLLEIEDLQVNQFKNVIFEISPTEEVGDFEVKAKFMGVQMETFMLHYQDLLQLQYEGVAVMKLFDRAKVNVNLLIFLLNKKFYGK
Venus-IQGAP1 (human), sequence (P46940 whole entry): as above
CFP-Cdc42, P60953 1-191 (natural protein; other documents disagree on this pair), sequence (P60953 whole entry): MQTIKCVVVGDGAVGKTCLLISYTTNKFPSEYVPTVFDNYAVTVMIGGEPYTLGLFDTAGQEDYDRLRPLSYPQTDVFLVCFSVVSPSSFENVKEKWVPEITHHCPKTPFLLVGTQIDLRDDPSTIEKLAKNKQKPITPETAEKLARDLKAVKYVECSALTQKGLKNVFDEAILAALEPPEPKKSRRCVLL

Row | Substance | FRET efficiency E% at low D:A ratios (regression line) (Venus-IQGAP1 (human)) | average FRET efficiency E% (Venus-IQGAP1 (human)) | FRET efficiency E% at low D:A ratios (regression line) (mCherry-actin [1]) | average FRET efficiency E% (mCherry-actin [1]) | FRET efficiency E% at low D:A ratios (regression line) (mCherry-actin [2]) | average FRET efficiency E% (mCherry-actin [3])
1 | CFP-Cdc42, P60953 1-191 (natural protein; other documents disagree on this pair) | 25% | 20% | – | – | – | –
2 | Venus-IQGAP1 (from UniProt P46940 1-1657) (natural protein) | – | – | 25 to 35% | 31% | 25 to 35% | 26%

From publication PMC3917506
